The series addresses T1, MSL2 CXC domain (Drosophila melanogaster, UniProt P50534 520-570, C560G).
T1 sequence: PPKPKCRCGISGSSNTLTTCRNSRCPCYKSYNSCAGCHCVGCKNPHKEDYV
The series can be described thus: crystal structure.

B1: (GC)6 (12 bp) (dsDNA)
DNA 1: GCGCGCGCGCGC
DNA 2: GCGCGCGCGCGC
As to B1, the binding result is “binds”.

For the origin of these results see paper PMC4248295.
